doi:10.1101/2024.02.27.582368 (bioRxiv, 2024)
One block for each molecule: values may come before it.

Tests used:
[1] = target: BC1280 (CapP, CalY-assisting polymerization protein), full-length recombinant protein (Bacillus cereus ATCC14579) (UniProt Q81GC7); experiment: native gel or EMSA
native gel or EMSA = target: the molecule itself; experiment: native gel or EMSA

- stoichiometry N [1]: 15 subunits
Molecule: BC1280 (CapP, CalY-assisting polymerization protein), full-length recombinant protein (from UniProt Q81GC7 1-279) (natural protein)

B1: N-domain39-190 of BC1280 (domain or fragment, Bacillus cereus ATCC14579, UniProt Q81GC7 39-190, looked up)
chain: AAFIHETKVEATLSTAIIFPKTVNTLKEQSEKHKQFIEREYGTMKGKLKATSIEEIKQAISVWQQGREKIVAEKEALQNVYTEIEAPYNQIQEELKVNKDESMQQVSIYVNEGFRSIKEKRDYIEKEISLKAIDEQIQALQQQLNVAIEAEG
- stoichiometry N (native gel or EMSA): ~15 subunits
